Tests used:
[1] = target: Argonaute 2 (human (endogenous in U937, U1, J1.1, HEK293T)) (UniProt Q9UKV8)
[2] = target: Argonaute 2 (human (endogenous in U937, U1, J1.1, HEK293T)) (UniProt Q9UKV8); remark: listed apart in the source

Chain of UniProt Q9UKV8 (Q9UKV8 whole entry): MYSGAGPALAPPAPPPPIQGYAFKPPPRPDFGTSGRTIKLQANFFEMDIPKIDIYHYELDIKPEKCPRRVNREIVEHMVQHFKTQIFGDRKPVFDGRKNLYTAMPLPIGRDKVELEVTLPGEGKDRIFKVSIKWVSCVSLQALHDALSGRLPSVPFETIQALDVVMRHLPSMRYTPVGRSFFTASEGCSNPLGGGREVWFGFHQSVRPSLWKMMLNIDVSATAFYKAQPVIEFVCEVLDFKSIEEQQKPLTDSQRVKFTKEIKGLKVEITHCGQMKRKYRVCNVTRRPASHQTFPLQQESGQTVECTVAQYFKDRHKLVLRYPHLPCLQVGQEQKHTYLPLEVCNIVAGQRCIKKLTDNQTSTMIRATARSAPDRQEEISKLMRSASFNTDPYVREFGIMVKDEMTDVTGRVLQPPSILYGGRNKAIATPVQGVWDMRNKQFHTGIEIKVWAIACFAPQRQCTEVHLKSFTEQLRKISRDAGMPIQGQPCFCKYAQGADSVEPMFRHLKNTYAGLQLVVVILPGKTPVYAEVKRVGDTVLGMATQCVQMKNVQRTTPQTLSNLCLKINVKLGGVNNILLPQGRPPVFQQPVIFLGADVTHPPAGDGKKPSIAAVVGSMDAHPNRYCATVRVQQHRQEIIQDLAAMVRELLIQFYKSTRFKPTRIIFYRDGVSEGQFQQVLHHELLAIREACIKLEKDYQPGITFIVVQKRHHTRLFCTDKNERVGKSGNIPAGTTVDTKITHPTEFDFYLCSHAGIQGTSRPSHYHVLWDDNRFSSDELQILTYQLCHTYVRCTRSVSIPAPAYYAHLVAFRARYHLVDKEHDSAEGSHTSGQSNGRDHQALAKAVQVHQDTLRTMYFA

Nef-EYFP fusion protein (natural protein)
slicer assay: cleavage of 32P-labelled let-7a RNA by Ago2 immunoprecipitates from U937/Nef-EYFP cells compared to U937/EYFP cells [1]: < 50%

wild type Nef (natural protein)
RLuc-let7a reporter luciferase activity against the empty vector, U937 or HEK293T cells co-transfected with the Nef expression vector [2]: 70%

Reference: publication PMC3762824
